Measurements from patent US20260209348A1 (University of California, published 2026).

B1: h6E6-045 (antibody, V domains shown)
VH: EVQLVESGGGLVKPGGSLRLSCAASGFTFSGYGMSWVRQAPGKGLEWVSTISSGGGYTHYVQSVKGRFTISRDNAKNSLYLQMNSLRAEDTAVYYCARHPRDFSYAMDYWGQGTTVTVSS
VL: EIVMTQSPATLSVSPGERATLSCKASQDVGHYVAWYQQKPGQAPRLLIYWASTRATGIPARFSGSGSGTEFTLTISSLQSEDFAVYYCQQYNIYPWTFGQGTKVEIK
notes: also called clone 45
B2: h6E6-047 (antibody, V domains shown)
VH: EVQLVESGGGLVKPGGSLRLSCAASGFTFSKYGMSWVRQAPGKGPEWVSTISSGGGYTHYATSVKGRFTISRDNAKNSLYLQMNSLRAEDTAVYYCARHPRDFSYALDYWGQGTTVTVSS
VL: EIVMTQSPATLSVSPGERATLSCRASQDVGHYVAWYQQKPGQAPRLLIYWASTRATGIPARFSGSGSGTEFTLTISSLQSEDFAVYYCQQYNIYPWTFGQGTKVEIK
notes: also called clone 47
B3: h6E6-082 (antibody, V domains shown)
VH: EVQLVESGGGLVKPGGSLRLSCAASGFTFSKYGMSWVRQAPGKGLEWVSTISSGGGYTHYADSVKGRFTISRDNAKNSLYLQMNSLRAEDTAVYYCARHPRDFSYAMDYWGQGTTVTVSS
VL: EIVMTQSPATLSVSPGERATLSCKASQDVGHYLAWYQQKPGQAPRLLIYWASTRHTGIPARFSGSGSGTEFTLTISSLQSEDFAVYYCQQYNIYPWTFGQGTKVEIK
notes: also called clone 82
B4: h6E6-084 (antibody, V domains shown)
VH: EVQLVESGGGLVKPGGSLRLSCAASGFTFSQYGMSWVRQAPGKGLEWVSTISSGGGYTHYVQSVKGRFTISRDNAKNSLYLQMNSLRAEDTAVYYCARHPRDFSYAQDYWGQGTTVTVSS
VL: EIVMTQSPATLSVSPGERATLSCKASQDVGHYLAWYQQKPGQAPRLLIYWASTRATGIPARFSGSGSGTEFTLTISSLQSEDFAVYYCQQYNIYPWTFGQGTKVEIK
notes: also called clone 84
B5: h6E6-071 (antibody, V domains shown)
VH: EVQLVESGGGLVKPGGSLRLSCAASGFTFSHYGMSWVRQAPGKGLEWVSTISSGGGYTHYAESVKGRFTISRDNAKNSLYLQMNSLRAEDTAVYYCARHPRDFSYAFDYWGQGTTVTVSS
VL: EIVMTQSPATLSVSPGERATLSCKASQDVGHYLAWYQQKPGQAPRLLIYWASTRHTGIPARFSGSGSGTEFTLTISSLQSEDFAVYYCQQYNIYPWTFGQGTKVEIK
notes: also called clone 71
B6: h6E6-046 (antibody, V domains shown)
VH: EVQLVESGGGLVKPGGSLRLSCAASGFTFSRYGISWVRQAPGKGLEWVSTISSGGGYTHYATSVKGRFTISRDNAKNSLYLQMNSLRAEDTAVYYCARHPRDFSYAMDYWGQGTTVTVSS
VL: EIVMTQSPATLSVSPGERATLSCKASQDVGHYVAWYQQKPGQAPRLLIYWASTRHTGIPARFSGSGSGTEFTLTISSLQSEDFAVYYCQQYNIYPWTFGQGTKVEIK
notes: also called clone 46
B7: h6E6-052 (antibody, V domains shown)
VH: EVQLVESGGGLVKPGGSLRLSCAASGFTFSHYGTSWVRQAPGKGLEWVSTISSGGGYTHYAESVKGRFTISRDNAKNSLYLQMNSLRAEDTAVYYCARHPRDFSYAIDYWGQGTTVTVSS
VL: EIVMTQSPATLSVSPGERATLSCKASQDVGHYLAWYQQKPGQAPRLLIYWASTRATGIPARFSGSGSGTEFTLTISSLQSEDFAVYYCQQYNIYPWTFGQGTKVEIK
notes: also called clone 52
B8: h6E6-054 (antibody, V domains shown)
VH: EVQLVESGGGLVKPGGSLRLSCAASGFTFSNYGVSWVRQAPGKGLEWVSTISSGGGYTHYVTSVKGRFTISRDNAKNSLYLQMNSLRAEDTAVYYCARHPRDFSYALDYWGQGTTVTVSS
VL: EIVMTQSPATLSVSPGERATLSCKASQDVGHYVAWYQQKPGQAPRLLIYWASTRATGIPARFSGSGSGTEFTLTISSLQSEDFAVYYCQQYNIYPWTFGQGTKVEIK
notes: also called clone 54
B9: h6E6-081 (antibody, V domains shown)
VH: EVQLVESGGGLVKPGGSLRLSCAASGFTFSSYGMNWVRQAPGKGLEWVSTISSGGGYTHYADSVKGRFTISRDNAKNSLYLQMNSLRAEDTAVYYCARHPRDFSYAQDYWGQGTTVTVSS
VL: EIVMTQSPATLSVSPGERATLSCRASQDVGHYVAWYQQKPGQAPRLLIYWASTRHTGIPARFSGSGSGTEFTLTISSLQSEDFAVYYCQQYNIYPWTFGQGTKVEIK
notes: also called clone 81
B10: h6E6-050 (antibody, V domains shown)
VH: EVQLVESGGGLVKPGGSLRLSCAASGFTFSRYGMSWVRQAPGKGLEWVSTISSGGGYTHYVDSVKGRFTISRDNAKNSLYLQMNSLRAEDTAVYYCARHPRDFSYAHDYWGQGTTVTVSS
VL: EIVMTQSPATLSVSPGERATLSCKASQDVGHYLAWYQQKPGQAPRLLIYWASTRATGIPARFSGSGSGTEFTLTISSLQSEDFAVYYCQQYNIYPWTFGQGTKVEIK
notes: also called clone 50
B11: h6E6-049 (antibody, V domains shown)
VH: EVQLVESGGGLVKPGGSLRLSCAASGFTFSNYGMSWVRQAPGKGLEWVSSISSGGGYTHYAESVKGRFTISRDNAKNSLYLQMNSLRAEDTAVYYCARHPRDFSYAMDYWGQGTTVTVSS
VL: EIVMTQSPATLSVSPGERATLSCKASQDVGHYVAWYQQKPGQAPRLLIYWASTRATGIPARFSGSGSGTEFTLTISSLQSEDFAVYYCQQYNIYPWTFGQGTKVEIK
notes: also called clone 49
B12: h6E6-062 (antibody, V domains shown)
VH: EVQLVESGGGLVKPGGSLRLSCAASGFTFSSYGHSWVRQAPGKGLEWVSTISSGGGYTYYAESVKGRFTISRDNAKNSLYLQMNSLRAEDTAVYYCARHPRDFSYAHDYWGQGTTVTVSS
VL: EIVMTQSPATLSVSPGERATLSCKASQDVGHYLAWYQQKPGQAPRLLIYWASTRATGIPARFSGSGSGTEFTLTISSLQSEDFAVYYCQQYNIYPWTFGQGTKVEIK
notes: also called clone 62
B13: h6E6-069 (antibody, V domains shown)
VH: EVQLVESGGGLVKPGGSLRLSCAASGFTFSKYGVSWVRQAPGKGLEWVSTISSGGGYTHYVESVKGRFTISRDNAKNSLYLQMNSLRAEDTAVYYCARHPRDFSYAMDYWGQGTTVTVSS
VL: EIVMTQSPATLSVSPGERATLSCKASQDVGHYLAWYQQKPGQAPRLLIYWASTRATGIPARFSGSGSGTEFTLTISSLQSEDFAVYYCQQYNIYPWTFGQGTKVEIK
notes: also called clone 69
B14: h6E6-099 (antibody, V domains shown)
VH: EVQLVESGGGLVKPGGSLRLSCAASGFTFSNYGMNWVRQAPGKGLEWVSTISSGGGYTHYAPSVKGRFTISRDNAKNSLYLQMNSLRAEDTAVYYCARHPRDFSYAMDYWGQGTTVTVSS
VL: EIVMTQSPATLSVSPGERATLSCKASQDVGHYVAWYQQKPGQAPRLLIYWASTRATGIPARFSGSGSGTEFTLTISSLQSEDFAVYYCQQYNIYPWTFGQGTKVEIK
notes: also called clone 99
B15: h6E6-106 (antibody, V domains shown)
VH: EVQLVESGGGLVKPGGSLRLSCAASGFTFSSYGISWVRQAPGKGLEWVSTISSGGGYTYYVDSVKGRFTISRDNAKNSLYLQMNSLRAEDTAVYYCARHPRDFSYALDYWGQGTTVTVSS
VL: EIVMTQSPATLSVSPGERATLSCKASQDVGHYVAWYQQKPGQAPRLLIYWASTRATGIPARFSGSGSGTEFTLTISSLQSEDFAVYYCQQYNIYPWTFGQGTKVEIK
notes: also called clone 106
B16: h6E6-090 (antibody, V domains shown)
VH: EVQLVESGGGLVKPGGSLRLSCAASGFTFSTYGTSWVRQAPGKGLEWVSTISSGGGYTHYAPSVKGRFTISRDNAKNSLYLQMNSLRAEDTAVYYCARHPRDFSYALDYWGQGTTVTVSS
VL: EIVMTQSPATLSVSPGERATLSCKASQDVGHYLAWYQQKPGQAPRLLIYWASTRHTGIPARFSGSGSGTEFTLTISSLQSEDFAVYYCQQYNIYPWTFGQGTKVEIK
notes: also called clone 90
B17: h6E6-076 (antibody, V domains shown)
VH: EVQLVESGGGLVKPGGSLRLSCAASGFTFSGYGMSWVRQAPGKGLEWVSTISSGGGYTHYVESVKGRFTISRDNAKNSLYLQMNSLRAEDTAVYYCARHPRDFSYALDYWGQGTTVTVSS
VL: EIVMTQSPATLSVSPGERATLSCKASQDVGHYLAWYQQKPGQAPRLLIYWASTRATGIPARFSGSGSGTEFTLTISSLQSEDFAVYYCQQYNIYPWTFGQGTKVEIK
notes: also called clone 76
B18: h6E6-089 (antibody, V domains shown)
VH: EVQLVESGGGLVKPGGSLRLSCAASGFTFSDYGISWVRQAPGKGLEWVSTISSGGGYTHYVQSVKGRFTISRDNAKNSLYLQMNSLRAEDTAVYYCARHPRDFSYAMDYWGQGTTVTVSS
VL: EIVMTQSPATLSVSPGERATLSCKASQDVGHYLAWYQQKPGQAPRLLIYWASTRATGIPARFSGSGSGTEFTLTISSLQSEDFAVYYCQQYNIYPWTFGQGTKVEIK
notes: also called clone 89
B19: h6E6-078 (antibody, V domains shown)
VH: EVQLVESGGGLVKPGGSLRLSCAASGFTFSAYGSSWVRQAPGKGLEWVSTISSGGGYTHYAPSVKGRFTISRDNAKNSLYLQMNSLRAEDTAVYYCARHPRDFSYAMDYWGQGTTVTVSS
VL: EIVMTQSPATLSVSPGERATLSCKASQDVGHYVAWYQQKPGQAPRLLIYWASTRATGIPARFSGSGSGTEFTLTISSLQSEDFAVYYCQQYNIYPWTFGQGTKVEIK
notes: also called clone 78
B20: h6E6-064 (antibody, V domains shown)
VH: EVQLVESGGGLVKPGGSLRLSCAASGFTFSHYGISWVRQAPGKGLEWVSSISSGGGYTHYAESVKGRFTISRDNAKNSLYLQMNSLRAEDTAVYYCARHPRDFSYAMDYWGQGTTVTVSS
VL: EIVMTQSPATLSVSPGERATLSCRASQDVGHYVAWYQQKPGQAPRLLIYWASTRATGIPARFSGSGSGTEFTLTISSLQSEDFAVYYCQQYNIYPWTFGQGTKVEIK
notes: also called clone 64
B21: h6E6-051 (antibody, V domains shown)
VH: EVQLVESGGGLVKPGGSLRLSCAASGFTFSNYGMSWVRQAPGKGLEWVSTISSGGGYTHYVDSVKGRFTISRDNAKNSLYLQMNSLRAEDTAVYYCARHPRDFSYALDYWGQGTTVTVSS
VL: EIVMTQSPATLSVSPGERATLSCKASQDVGHYVAWYQQKPGQAPRLLIYWASTRATGIPARFSGSGSGTEFTLTISSLQSEDFAVYYCQQYNIYPWTFGQGTKVEIK
notes: also called clone 51
B22: h6E6-097 (antibody, V domains shown)
VH: EVQLVESGGGLVKPGGSLRLSCAASGFTFSAYGMSWVRQAPGKGLEWVSTISSGGGYTHYVESVKGRFTISRDNAKNSLYLQMNSLRAEDTAVYYCARHPRDFSYAMDYWGQGTTVTVSS
VL: EIVMTQSPATLSVSPGERATLSCKASQDVGHYVAWYQQKPGQAPRLLIYWASTRATGIPARFSGSGSGTEFTLTISSLQSEDFAVYYCQQYNIYPWTFGQGTKVEIK
notes: also called clone 97

Molecular target: human ROR2 (human, UniProt Q01974 34-403, limits assumed)
Experiment: SPR
Outline: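 Values are dissociation constants (Kd, nM) for binding to human ROR2, measured by surface plasmon resonance. The monoclonal antibodies tested were humanized anti-human ROR2 antibodies built from murine complementarity-determining regions placed into human acceptor frameworks, with a human IgG1 constant region. Antigen format, concentrations, temperature, buffer and replicates are not given.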

human ROR2, sequence (Q01974 34-403 limits assumed): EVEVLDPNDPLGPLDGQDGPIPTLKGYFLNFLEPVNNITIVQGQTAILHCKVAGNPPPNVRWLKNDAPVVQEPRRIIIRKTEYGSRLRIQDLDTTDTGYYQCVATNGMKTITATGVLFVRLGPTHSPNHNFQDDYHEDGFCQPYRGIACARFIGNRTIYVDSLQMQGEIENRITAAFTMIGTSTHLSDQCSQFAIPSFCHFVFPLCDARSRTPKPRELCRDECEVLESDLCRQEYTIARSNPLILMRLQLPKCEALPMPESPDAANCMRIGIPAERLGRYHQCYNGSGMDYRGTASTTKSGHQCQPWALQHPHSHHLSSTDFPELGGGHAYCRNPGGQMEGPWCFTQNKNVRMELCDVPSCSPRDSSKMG

First: B1
Second: B2
The Kd of the first is 1.6-fold higher: 0.134 nM for the first, 0.086 nM for the second. The second binds more tightly here.

First: B3
Second: B4
The Kd of the first is 7.5-fold higher: 0.812 nM for the first, 0.108 nM for the second.

B5 and B6 are within 1.5-fold of each other in Kd: 0.582 nM for the first, 0.527 nM for the second.

Going from B7 to B8, the Kd falls from 0.533 nM to 0.178 nM (3-fold).

First: B9
Second: B10
The Kd of the first is 7.8-fold lower: 0.062 nM for the first, 0.482 nM for the second.

First: B11
Second: B12
The Kd of the first is 1.7-fold higher: 1.4 nM for the first, 0.839 nM for the second. The second binds more tightly here.

B13 and B14 are within 1.5-fold of each other in Kd: 0.407 nM for the first, 0.286 nM for the second.

Compared with B15, B16 is 3.6-fold lower in Kd: 0.642 nM for the first, 0.178 nM for the second.

Going from B17 to B18, the Kd rises from 0.203 nM to 2.2 nM (11-fold). The first binds more tightly here.

First: B19
Second: B20
The Kd of the first is 12-fold lower: 0.476 nM for the first, 5.8 nM for the second.

Compared with B21, B22 is 1.7-fold lower in Kd: 0.16 nM for the first, 0.096 nM for the second.
